Source: US20070265189A1
Like-named read-outs stand apart in the source and are kept apart here. Blank lines part the entries; values can stand above or below the binder they belong to. No end group written: not given here.

Assays:
[1] = biological target: human insulin receptor (HIR) (human) (UniProt P06213); assay: HIR Kd; method not restated (Example 3: 125I-insulin displacement, solubilised HIR)
[2] = biological target: T1, Insulin receptor prepared according to Bass et al., 1996 (human), P06213; assay: phage ELISA: IR ratio over background divided by IGF-1R ratio over background
[3] = biological target: Soluble IGF-1R (R&D Systems, Cat. # 391-GR/CF), P08069
[4] = biological target: T1, Insulin receptor prepared according to …
[5] = biological target: Soluble IGF-1R (R&D Systems, Cat. # 391-GR/CF), P08069; assay: phage ELISA: IGF-1R ratio over background divided by IR ratio over background
[6] = biological target: soluble human insulin receptor-immunoglobulin heavy chain chimera (sIR-Fc; Bass et al., 1996) (human) (UniProt P06213); assay: phage ELISA
[7] = biological target: human insulin receptor (HIR) purified from transfected cells after solubilization with Triton X-100 (human) (UniProt P06213); assay: competition with 125I-insulin for solubilised HIR, PEG precipitation; Kd calculated
[8] = biological target: human insulin receptor (HIR) (human) (UniProt P06213); assay: HIR Kd; method not restated (Example 3: 125I-insulin displacement, solubilised HIR); remark: listed apart in the source
[9] = biological target: soluble human insulin receptor-immunoglobulin heavy chain chimera (sIR-Fc; Bass et al., 1996) (human), P06213; assay: phage ELISA
[10] = biological target: Soluble IGF-1R (sIGF-1R), R&D Systems Cat. # 391-GR/CF, P08069; assay: phage ELISA

Kd [1]: 60 nM
B1: RB517 (peptide)
peptide: DYKDDDDKHLCVLEELFWGASLFGYCSGGGSGGSHLCVLEELFWGASLFGYCSGAAAGAPVPYPDPLEPRAA

Kd [1]: 0.059 nM
B2: RB537 (peptide)
peptide: MADYKDDDDKGSLDESFYDWFERQLGKKGGSGGSWLDQEWAWVQCEVYGRGCPSAAAGAPVPYPDPLEPRPG

Comparison IR/IGF-1R [2]: 0.6
Ratio over Background, IGF-1R (ratio over background) [3]: 3.4
Ratio over Background, IR (ratio over background) [4]: 1.9
Comparison IGF-1R/IR [5]: 1.8
B3: B6L-4-A7-IR (peptide, not shown: large carriers)
peptide: DYKDAGTPAQVGXNRLWSVWPGEHWNTVDPFYNKLSELLRESGAAAAGAP
modifications: not fully specified; X: residue not identified in the source; also: phage-displayed fusion

Kd [1]: 960 nM
B4: Fusion 463 (MBP fusion of H2C-3aa-H2C) (protein, not shown: large carriers; small tags and cut ends)
chain: NNNNLGIEGRISEFIEGRAQPAMAFHENFYDWFVRQVSGGSFHENFYDWFVRQVSAAAGAPVPYPDPLEPRAA

IR/IGF-1R comparison [6]: 0.1
Ratio over Background [6]: 2
B5: A6L-0-H3-IR (peptide)
peptide: YRGMLVLGRISGGAGKAASERPARIGQKVSAVNFYDWFV

Kd [7]: 320 nM
B6: S386 (peptide)
peptide: GSLDESFYDWFERQLG

Kd [8]: 39 nM
B7: Fusion 464 (MBP fusion of LF-H2C) (protein, not shown: large carriers; small tags and cut ends)
chain: NNNNLGIEGRISEFIEGRDYKDDDDKFHENFYDWFVRQVSAAGAPVPYPDPLEPRAA

Kd [1]: 410 nM
B8: Fusion 436 (MBP fusion of H2C-9aa-H2C) (protein, not shown: large carriers; small tags and cut ends)
chain: NNNNLGIEGRISEFIEGRAQPAMAFHENFYDWFVRQVSGGSGGSGGSFHENFYDWFVRQVSAAAGAPVPYPDPLEPRAA

Kd [1]: 44 nM
B9: RB521 (peptide)
peptide: MADYKDDDDKGSLDESFYDWFERQLGKKGGSGGSGSLDESFYDWFERQLGKKAAAGAPVPYPDPLEPRPG

Kd [1]: 20 nM
Kd [8]: 2000 nM
B10: Fusion 435 (MBP fusion of H2C-3aa-H2C-3aa-H2C) (protein, not shown: large carriers; small tags and cut ends)
chain: NNNNLGIEGRISEFIEGRAQPAMAFHENFYDWFVRQVSGGSFHENFYDWFVRQVSGGSFHENFYDWFVRQVSAAAGAPVPYPDPLEPRAA

IR/IGF-1R comparison [9]: 0.1
Ratio over Background [9]: 0.9
IGF-1R/IR comparison [10]: 11
Ratio over Background [10]: 9.9
B11: B6Hα-2-C4-IR (peptide)
peptide: RCGRWXAEMGAGDDPFYHKLSELVCG
modifications: not fully specified; X: residue not identified in the source; cysteine pairing not given here

IR/IGF-1R comparison [6]: 0.3
Ratio over Background [6]: 1.9
B12: H2CA-4-H9-IGFR (peptide)
peptide: RGAVAGFHDQFYDWFDRQVSRVHKFG

IR/IGF-1R comparison [9]: 0.1
Ratio over Background [9]: 2.1
IGF-1R/IR comparison [10]: 7.5
Ratio over Background [10]: 15.4
B13: 20E2B-3-C11-IGFR (peptide)
peptide: CMMXDGFYAGLGCLLTAGEGR
modifications: not fully specified; printed as CMM.DGFYAGLGCLLTAGEGR; X: residue not identified in the source; cysteine pairing not given here

Kd [1]: 0.017 nM
B14: RB538 (peptide)
peptide: MADYKDDDDKGSLDESFYDWFERQLGKKGGSGGSGGSGGSWLDQEWAWVQCEVYGRGCPSAAAGAPVPYPDPLEPRPG

Kd [1]: 83 nM
Kd [8]: 8300 nM
B15: Fusion 437 (MBP fusion of H2C) (protein, not shown: large carriers; small tags and cut ends)
chain: NNNNLGIEGRISEFIEGRAQPAMAFHENFYDWFVRQVSAAAGAPVPYPDPLEPRAA

IR/IGF-1R comparison [9]: 0.1
Ratio over Background [9]: 1.1
IGF-1R/IR comparison [10]: 9.4
Ratio over Background [10]: 10.6
B16: 20E2B-2-B11-IGFR (peptide)
peptide: VVTPVNFYRALEALVRGXRLG
modifications: not fully specified; printed as VVTPVNFYRALEALVRG.RLG; X: residue not identified in the source

Comparison IR/IGF-1R [2]: 0.7
Ratio over Background, IGF-1R (ratio over background) [3]: 2.5
Ratio over Background, IR (ratio over background) [4]: 1.8
Comparison IGF-1R/IR [5]: 1.4
B17: B6L-3-G6-IR (peptide, not shown: large carriers)
peptide: DYKDVDTPAQVGWNRLWSVGPGEHWYTDDPFYHXLSELLRESGAAAAGAP
modifications: X: residue not identified in the source; also: phage-displayed fusion
